PMC9045712 (Science Advances, 2022)

Target: recombinant MCM2 (minichromosome maintenance protein 2), from 6x His-FLAG-TEV-MCM2 (mouse, UniProt P97310 1-904)
Experiment: co-IP

Chain of recombinant MCM2 (minichromosome maintenance protein 2), from 6x His-FLAG-TEV-MCM2 (P97310 whole entry): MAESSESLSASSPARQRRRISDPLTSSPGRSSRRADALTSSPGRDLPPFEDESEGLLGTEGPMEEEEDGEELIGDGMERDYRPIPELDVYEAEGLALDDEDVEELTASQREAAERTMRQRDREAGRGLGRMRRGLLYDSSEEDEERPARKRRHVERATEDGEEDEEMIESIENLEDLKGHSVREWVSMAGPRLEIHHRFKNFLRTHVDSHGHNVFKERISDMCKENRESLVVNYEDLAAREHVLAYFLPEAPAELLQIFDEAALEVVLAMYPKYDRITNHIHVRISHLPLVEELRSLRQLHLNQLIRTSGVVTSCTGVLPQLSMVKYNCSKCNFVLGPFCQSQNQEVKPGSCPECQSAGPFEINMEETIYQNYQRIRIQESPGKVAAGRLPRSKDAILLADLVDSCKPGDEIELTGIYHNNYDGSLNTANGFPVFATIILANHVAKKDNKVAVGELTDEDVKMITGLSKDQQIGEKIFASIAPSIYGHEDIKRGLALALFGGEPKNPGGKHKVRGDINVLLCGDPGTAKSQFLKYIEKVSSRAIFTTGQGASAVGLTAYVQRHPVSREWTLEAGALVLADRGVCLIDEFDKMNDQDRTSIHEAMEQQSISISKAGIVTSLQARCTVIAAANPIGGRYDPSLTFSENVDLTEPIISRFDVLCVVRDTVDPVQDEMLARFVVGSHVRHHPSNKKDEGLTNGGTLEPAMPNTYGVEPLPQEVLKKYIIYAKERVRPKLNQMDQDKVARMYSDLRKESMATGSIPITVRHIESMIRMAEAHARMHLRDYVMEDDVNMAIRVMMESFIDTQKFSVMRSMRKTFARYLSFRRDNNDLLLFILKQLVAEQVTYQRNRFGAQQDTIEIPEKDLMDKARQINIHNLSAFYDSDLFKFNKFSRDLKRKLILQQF

B1: recombinant NPM1 (nucleophosmin), from 6x His-FLAG-TEV-NPM1 (natural protein)
chain: MEDSMDMDMSPLRPQNYLFGCELKADKDYHFKVDNDENEHQLSLRTVSLGAGAKDELHIVEAEAMNYEGSPIKVTLATLKMSVQPTVSLGGFEITPPVVLRLKCGSGPVHISGQHLVAVEEDAESEDEDEEDVKLLGMSGKRSAPGGGNKVPQKKVKLDEDDEDDDEDDEDDEDDDDDDFDEEETEEKVPVKKSVRDTPAKNAQKSNQNGKDLKPSTPRSKGQESFKKQEKTPKTPKGPSSVEDIKAKMQASIEKGGSLPKVEAKFINYVKNCFRMTDQEAIQDLWQWRKSL
**Q.** Does B1 bind?
**A.** binds
